{"source": "patent US20170101458A1", "key": {"[1]": {"target": "hLDLR-K809R\\C818A (human) (UniProt P01130)", "experiment": "cell-based or functional assay"}, "[2]": {"target": "wild type human low density lipoprotein receptor (hLDLR), isoform 1 (human) (UniProt P01130)", "experiment": "cell-based or functional assay"}}}
{"substance": "human inducible degrader of LDLR (hIDOL) (from UniProt Q8WY64 1-445)", "values": [{"measurement": "percent LDL positive HEK293 cells, hLDLR-K809R\\C818A co-transfected with hIDOL", "setting": "[1]", "result": "14 % of cells"}, {"measurement": "percent LDL positive HEK293 cells, hLDLR co-transfected with hIDOL", "setting": "[2]", "result": "2 % of cells"}]}
